Data taken from US20050249719.

T1: gliadin peptide PQPQLPYPQPQLP
T1 chain: PQPQLPYPQPQLP

T2: 33-mer gliadin peptide LQLQPFPQPQLPYPQPQLPYPQPQLPYPQPQPF
T2 chain: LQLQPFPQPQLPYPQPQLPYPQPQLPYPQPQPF

B1: Flavobacterium meningosepticum prolyl endopeptidase (recombinant, expressed in E. coli) (protein)
chain: QNSNVLKYPETKKVSHTDTYFGTQVSDPYRWLEDDRAEDTKAWVQQEVKFTQDYLAQIPFRDQLKKQLMDIWNYEKISAPFKKGKYTYFSKNDGLQAQSVLYRKDAAGKTEVFLDPNKFSEKGTTSLASVSFNKKGTLVAYSISEGGSDWNKIIILDAETKKQLDETLLDVKFSGISWLGDEGFFYSSYDKPKEGSVLSGMTDKHKVYFHKLGTKQSQDELIIGGDKFPRRYIGAYVTDDQRYLVVSAANATNGNELYIKDLKNKTDFIPIITGFDSNVNVADTDGDTLYLFTDKDAPNKRLVKTTIQNPKAETWKDVIAETSEPLEINTGGGYFFATYMKDAIDQVKQYDKNGKLVRAIKLPGSGNASGFGGEKTEKDLYYSFTNYITPPTIFKYNVTTGNSEVYQKPKVKFNPENYVSEQVFYTSSDGTKIPMMISYKKGLKKDGKNPTILYSYGGFNISLQPAFSVVNAIWMENGGIYAVPNIRGGGEYGKKWHDAGTKMQKKNVFNDFIAAGEYLQKNGYTSKEYMALSGRSNGGLLVGATMTMRPDLAKVAFPGVGVLDMLRYNKFTAGAGWAYDYGTAEDSKEMFEYLKSYSPVHNVKAGTCYPSTMVITSDHDDRVVPAHSFKFGSELQAKQSCKNPILIRIETNAGHGAGRSTEQVVAENADLLSFALYEMGIKSLK
B2: human tissue transglutaminase (protein)
chain: AEELVLERCDLELETNGRDHHTADLCREKLVVRRGQPFWLTLHFEGRNYEASVDSLTFSVVTGPAPSQEAGTKARFPLRDAVEEGDWTATVVDQQDCTLSLQLTTPANAPIGLYRLSLEASTGYQGSSFVLGHFILLFNAWCPADAVYLDSEEERQEYVLTQQGFIYQGSAKFIKNIPWNFGQFEDGILDICLILLDVNPKFLKNAGRDCSRRSSPVYVGRVVSGMVNCNDDQGVLLGRWDNNYGDGVSPMSWIGSVDILRRWKNHGCQRVKYGQCWVFAAVACTVLRCLGIPTRVVTNYNSAHDQNSNLLIEYFRNEFGEIQGDKSEMIWNFHCWVESWMTRPDLQPGYEGWQALDPTPQEKSEGTYCCGPVPVRAIKEGDLSTKYDAPFVFAEVNADVVDWIQQDDGSVHKSINRSLIVGLKISTKSVGRDEREDITHTYKYPEGSSEEREAFTRANHLNKLAEKEETGMAMRIRVGQSMNMGSDFDVFAHITNNTAEEYVCRLLLCARTVSYNGILGPECGTKYLLNLNLEPFSEKSVPLCILYEKYRDCLTESNLIKVRALLVEPVINSYLLAERDLYLENPEIKIRILGEPKQKRKLVAEVSLQNPLPVALEGCTFTVEGAGLTEEQKTVEIPDPVEAGEEVKVRMDLLPLHMGLHKLVVNFESDKLKAVKGFRNVIIGPA

Legend:
[1] = target: T1, gliadin peptide PQPQLPYPQPQLP
[2] = target: T2, 33-mer gliadin peptide …

Row | Protein | Kcat/KM [1] [mM^-1/s^-1] | competitive proteolysis of the 13-mer and the 33-mer [1] | competitive proteolysis of the 13-mer and the 33-mer [2] | initial rate on the 33-mer, fold against MX PEP [2] | initial rate on the 33-mer, fold against SC PEP [2] | rate of substrate (33-mer+32-mer) disappearance [2] | time to hydrolyze 10 µM of the 33-mer with 0.1 µM enzyme [2] | kcat/KM of deamidation [2]
1 | B1 | 178 | showed comparable selectivity for both peptides | showed comparable selectivity for both peptides | 5-fold faster on the 33-mer than the MX PEP | >20 fold faster than the SC PEP | 2.3 µM/min (FM PEP) | in about 2-3 minutes | 
2 | B2 |  |  |  |  |  |  |  | kcat/KM=440 min-1 mM-1
